Broadly, the Kd is the concentration at which binding is half-saturated. Lower therefore signals a tighter complex. As usually defined, the koff is the first-order rate constant of dissociation. Read a low koff as slow dissociation.

First the molecules themselves.
B1: lucifer yellow-labeled BiP substrate peptide (HTFPAVLGSC) (peptide)
peptide: HTFPAVLGSC
modifications: also: lucifer yellow label, position not given here
notes: well-characterized BiP substrate peptide; also called LY-labeled substrate peptide; fluorescently-labeled substrate peptide
B2: hamster BiP (27-654, with a His6-tag) AMPylated in vitro to completion on Thr518 (natural protein)
chain: not shown
modifications: AMPylated threonine at 518 (single AMP)
notes: BiP (GRP78), Chinese hamster (Cricetulus griseus), residues 27-654; numbers count on the precursor with its signal peptide (mature BiP is 19-654); also called BiP-AMP; AMPylated BiP; source: E. coli M15, purified (Ni-NTA); not shown: His6, N-terminal, kept
B3: hamster BiP (27-654, with a His6-tag), unmodified (natural protein)
chain: not shown
notes: BiP (GRP78), Chinese hamster (Cricetulus griseus), residues 27-654; numbers count on the precursor with its signal peptide (mature BiP is 19-654); also called wildtype (wt) BiP; GRP78; source: E. coli M15, purified (Ni-NTA); unmodified BiP from mock in vitro AMPylation reactions without enzyme served as control in the functional assays; not shown: His6, N-terminal, kept

Conditions in all cases: both partners purified
Assay [1] deals with B2. Description: fluorescence polarisation; steady state: 1 µM lucifer yellow-labeled peptide with BiP or BiP-AMP at 0-40 µM, 1 mM ADP, 24 hr at 30°C, FP buffer (37.5 mM HEPES-KOH pH 7.4, 125 mM KCl, 7 mM MgCl2, 0.5 mM CaCl2, 125 mM imidazole, 0.05% Triton X-100); read at room temperature.
Assay [2] has as its target B3. The assay is described as above.
The target of assay [3] is B2. Description: fluorescence polarisation; competitive dissociation: pre-formed complex of BiP or BiP-AMP (40 µM) and LY-labeled peptide (1 µM) in 1 mM ADP, 400-fold excess (0.4 mM) of unlabeled peptide added at t = 0; single phase decay fit of the first 60 min. Background: In fluorescence polarisation assays a small probe gives low polarisation when free and higher when bound to something large.

Assay [4] addresses B3. The assay is described as above.
The target of assay [5] is B1. The description is as above.

Where no end group is shown, it is not given here.

Take B1: the dissociation constant Kd was 11.5 µM in assay [1] and 16.7 µM in assay [2]. Moreover, the koff is 0.00353 s⁻¹ in assay [3] and 0.000617 s⁻¹ in assay [4].
For the molecule B2, in assay [5], the “half-life (t1/2) of the complex” value was 3.3 min.
With HTFPAVL (also called unlabeled peptide) [unlabeled substrate peptide (HTFPAVL)], the binding result in assay [3] and in assay [4] was “binds” in each case.
For the molecule B3, in assay [5], the “half-life (t1/2) of the complex” value was 19.3 min.
